For assay [1], the system named is PCSK9-mCherry internalization. The assay is described as follows: PCSK9-mCherry internalization in LDLR-EGFP transfected HepG2 cells, confocal microscopy. The conditions noted are these: 10 nM recombinant protein, HepG2, overnight, versus control. The format is cell-based, human. The protocol: (§1) FIG. 5: SEQ ID NO. 67 blocks PCSK9 internalization and LDLR degradation. Recombinant SEQ ID NO. 67 was added to conditioned media obtained from HEK293 transfected with PCSK9-mCherry or in DMEM together with recombinant human PCSK9, rotated 4 h at 4° C. and added overnight on HepG2 cells as indicated. (a) Following 24 h post-transfection with LDLR-EGFP cDNA (SEQ. ID. NO. 69), HepG2 cells were incubated with PCSK9-mCherry without (−) or with 10 nM SEQ ID NO. 67. Fluorescent proteins were visualized in fixed cells by confocal microscopy. (b) Cells were incubated without or with 25 nM PCSK9 alone or with 0, 10, 25 or 100 nM SEQ ID NO. 67. Total LDLR, SEQ ID NO. 67, PCSK9 and β-actin protein levels were analyzed by immunoblotting in cell lysates and conditioned media as indicated. Data are representative of at least three independent experiments.
Huh-7 cells were washed three times with PBS, fixed with Bouin's solution (0.9% picric acid, 9% paraformaldehyde, 5% acetic acid/PBS) for 15 min. Following extensive PBS washes, cells were permeabilized with 0.1% Triton X-100/PBS for 10 min and incubated with 150 mM glycine to stabilize the aldehydes. […]

Assay [2] deals with PCSK9-induced LDLR degradation. The assay is described as follows: PCSK9-induced LDLR degradation in HepG2 cells, extracellular addition, immunoblot. The format is cell-based, human. On the procedure: as §1
FIG. 7: SEQ ID NO. 6 prevents PCSK9-induced LDLR degradation. (a) Left; Coomassie staining of purified recombinant SEQ ID NO. 6 and PCSK9 separated by SDS-PAGE is shown. Right; HepG2 cells were incubated in DMEM without or with 0, 25, 100 or 250 nM SEQ ID NO. 6 alone or in presence of recombinant PCSK9. (b) HepG2 cells were transfected without (−) or with PCSK9-V5 in absence (−) or presence SEQ ID NO. 66 or SEQ ID NO. 46. Total LDLR, PCSK9, SEQ ID NO. 66, SEQ ID NO. 46 and β-actin protein levels were analyzed by immunoblotting in cell lysates and conditioned media as indicated. Data are representative of at least three independent experiments.
For Western blot analyses, SDS-polyacrylamide gels were blotted on nitrocellulose membranes (Cat. #162-0115, Bio-Rad), and blocked for 1 h in Tris-Buffered Saline-Tween 20 (TBS-T; 50 mM Tris-HCl, pH 7.5, 150 mM NaCl, 0.1% Tween 20) containing 5% non-fat dry milk. Membranes were then incubated overnight in TBS-T supplemented with 1% non-fat milk and indicated antibodies: rabbit anti-PCSK9 (1:2500, custom made, GenScript), goat anti-human or anti-mouse LDLR (1:1000; Cat. #AF2148 or #A2255, R&D Systems), rat anti-Grp94 (1:30,000), rabbit anti-GRP78 (1:2500; Cat. #ab21685, Abcam), rabbit anti-GFP (1:2000; Cat. #A11122, Life Sciences), mouse anti-V5-tag (1:5000; Cat. #A00641, GenScript), mouse anti-HA-tag (1:5000), rabbit anti-β-actin (1:5000; Cat. #A2066, Sigma-Aldrich). Appropriate HRP-conjugated secondary antibodies (1:10,000, GE healthcare) were used for detection using the Western Lightning Ultra chemiluminescence kit (Cat. #NE1112001EA, PerkinElmer) and BioFlex EC Films (Cat. #CLEC810, InterScience).
To validate this hypothesis, we therefore first tested the effect of extracellular SEQ ID. NO. […]
We next tested whether SEQ ID. […] (Poirier et al., 2009) As PCSK9 was also shown to induce LDLR degradation via an intracellular pathway, (Poirier et al., 2009) we evaluated to ability of SEQ ID. […]
(Immunoblotting shows a protein as a band on a membrane.)

The next assay addresses T1, PCSK9 binding to LDLR (Homo sapiens, UniProt Q8NBP7).
T1 construct: made in house; host or cells: HEK293T
The assay is described as follows: In vitro PCSK9-LDLR competitive pull-down (immunoprecipitation with mAb-V5). The conditions noted are these: 1 μg PCSK9, 1 μg LDLR, preincubation 4 h. On the procedure:
FIG. 6: SEQ ID NO. 6 reduces PCSK9 binding to LDLR in vitro. Left; Coomassie staining of His6 tag purified recombinant SEQ ID NO. 6 and PCSK9 produced as described in Material and Methods. Right; PCSK9-V5-His6 (1 μg) was incubated without (−) or with (+) recombinant SEQ ID NO. 6 (2 μg) in 500 μl of immune-precipitation (IP) buffer (PBS, 1 mM CaCl2, 1% Tween-20 and protease inhibitors) for 4 h at 4° C. on a rotator. Following incubation, 1 μg of recombinant human LDLR ectodomain was added together with 50 μl of A/G-agarose beads and 1 μg of mAb-V5 antibody and incubated with rotation overnight. Samples were then centrifuged at 3,000×g for 5 min and pellets washed three times with 1 ml IP buffer and rotated for 10 min 4° C. and resuspended in 2× Laemmli loading buffer. Samples were separated by SDS-PAGE and immune-blotted as indicated. Data are representative of two independent experiments.
NO. […] NO. 3 might be due to direct competition for PCSK9 binding to the LDLR. To test this hypothesis, we subcloned the SEQ ID. NO. 6 into the pET-24 bacterial expressing vector of which recombinant protein were retrieved from E. coli and purified by metal affinity and size exclusion chromatography. The homogeneity of purified SEQ ID. NO. 6(^˜20 kDa) and recombinant PCSK9 purified from conditioned media of HEK293 transfected cells were assessed by SDS-PAGE and coomassie staining (FIG. 6; left panels). […]

T1 sequence (Q8NBP7 153-692): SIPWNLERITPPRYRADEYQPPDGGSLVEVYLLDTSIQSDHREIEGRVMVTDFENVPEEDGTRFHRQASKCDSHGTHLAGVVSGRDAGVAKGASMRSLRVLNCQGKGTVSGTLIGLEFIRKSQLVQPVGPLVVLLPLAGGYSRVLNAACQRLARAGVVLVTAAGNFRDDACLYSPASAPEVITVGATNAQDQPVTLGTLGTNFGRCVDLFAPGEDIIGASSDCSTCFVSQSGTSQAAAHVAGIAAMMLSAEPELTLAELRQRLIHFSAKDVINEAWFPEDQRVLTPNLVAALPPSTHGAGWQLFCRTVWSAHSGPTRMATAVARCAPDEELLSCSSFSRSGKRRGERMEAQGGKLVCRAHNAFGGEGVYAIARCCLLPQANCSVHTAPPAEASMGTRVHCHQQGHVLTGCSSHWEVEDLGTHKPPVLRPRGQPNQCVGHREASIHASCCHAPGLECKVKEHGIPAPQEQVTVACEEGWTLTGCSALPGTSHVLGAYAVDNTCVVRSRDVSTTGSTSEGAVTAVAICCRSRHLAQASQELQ
T1 sequence (Q8NBP7 31-152 partner limits assumed): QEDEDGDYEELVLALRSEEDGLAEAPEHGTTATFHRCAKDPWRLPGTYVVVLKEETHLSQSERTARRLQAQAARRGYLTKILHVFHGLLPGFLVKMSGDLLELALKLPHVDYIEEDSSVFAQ

For the molecule “SEQ ID. NO. 67: full-length recombinant GRP94 obtained from Enzo Life Sciences (Cat. #ADI-SPP-766)”, the “PCSK9-mCherry internalization in LDLR-EGFP expressing cells” value in assay [1] is “significantly reduced”. The “Effect on PCSK9-induced LDLR degradation” value in assay [2] (HepG2, overnight, 25 nM PCSK9, 0, 10, 25 or 100 nM protein) is “reverted in a dose-dependent manner”.

B1: SEQ ID. NO. 6: GRP94 CDB-CT domain, 148 aa, recombinant ~20 kDa protein purified from E. coli (protein)
chain: YGWSGNMERIMKAQAYQTGKDISTNYYASQKKTFEINPRHPLIRDMLRRIKEDEDDKTVLDLAVVLFETATLRSGYLLPDTKAYGDRIERMLRLSLNIDPDAKVEEEPEEEPEETAEDTTEDTEQDEDEEMDVGTDEEEETAKESTAE
B1: the “Block of exogenously added PCSK9” value in assay [2] (250 nM, HepG2, exogenous PCSK9 ~6-fold endogenous levels) is given as “not sufficient”. The “Concentration at which maximum effect on total LDLR protein levels was saturated” value in assay [2] (HepG2, overnight) is listed as not above 25 nM. In addition, the “Total LDLR protein levels” value in assay [2] (HepG2, overnight, extracellular addition, endogenously secreted PCSK9) is on record as “significantly increases”. In the assay with PCSK9 binding to LDLR, the “LDLR pull-down with PCSK9” value was “partially inhibited”.

These data come from patent US11529390B2, “PCSK9 inhibitory polypolypeptides and methods of use” (INSTITUT DE CARDIOLOGIE DE MONTREAL, priority 2015, dated 2022).
